Measured values reported in PMC9363494 (2022).

Target: full-length α-synuclein (UniProt P37840 1-140)
Test: NMR; segment 1 (Seg-1)

B1: protein disulfide isomerase (enzyme)
chain: not shown
- Kd: 750 µM
